The source of these data is patent US20060153853A1.

Assay [1] addresses IGF-I (insulin-like growth factor I) (UniProt P05019). In words: SPR (BIAcore), IGF-I amine-coupled to CM5 chip, IGFBP-2 as analyte, Langmuir 1:1 fit.
The target is the same in assay [2]. Briefly: SPR (BIAcore) on immobilised IGF-I; text summing up Table 2.
Assay [3] has as its target IGF-II (insulin-like growth factor II) (UniProt P01344). Briefly: SPR (BIAcore) on immobilised IGF-II; text summing up Table 3.
The target is the same in assay [4]. Briefly: SPR (BIAcore), IGF-II amine-coupled to CM5 chip, IGFBP-2 as analyte, Langmuir 1:1 fit.
Assay [5] shares this target. In words: SPR (BIAcore), IGF-II amine-coupled to CM5 chip; ratio against hIGFBP-2.
In assay [6] the target is IGF-I (insulin-like growth factor I) (UniProt P05019). Briefly: method not stated in the legend (presumably BIAcore).
IGF-I (insulin-like growth factor I), sequence (P05019 49-118 limits assumed): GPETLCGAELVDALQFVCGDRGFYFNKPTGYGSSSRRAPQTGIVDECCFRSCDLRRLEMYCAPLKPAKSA
Assay [7] shares this target. Briefly: SPR (BIAcore), IGF-I amine-coupled to CM5 chip; ratio against hIGFBP-2.
For assay [8], the target named is IGF-II (insulin-like growth factor II) (UniProt P01344). In words: method not stated in the legend (presumably BIAcore).
IGF-II (insulin-like growth factor II), sequence (P01344 25-91 limits assumed): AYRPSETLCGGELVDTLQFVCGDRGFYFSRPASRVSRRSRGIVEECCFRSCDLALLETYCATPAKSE

Consider “Des(114-170)His hIGFBP-2 (from UniProt P18065 36-113; P18065 207-325)”, for which the Kd was found to be 3.63 nM in assay [1] and 1.14 nM in assay [4]. Further, the results for the koff in assay [1] and in assay [4] were 0.000425 s⁻¹ and 0.00013 s⁻¹, respectively. In addition, the kon in assay [1] was determined as 117000 M⁻¹ s⁻¹; in assay [4] it was 114000 M⁻¹ s⁻¹. The results for the fold decrease in affinity against native hIGFBP-2 in assay [2] and in assay [3] were 5 fold and 2 fold, respectively. Moreover, the Rel. KD (KD of hIGFBP-2/KD of hIGFBP-2 mutant) in assay [5] came out at 0.51; in assay [7], 0.26. In addition, the fold lower affinity (reference not named, presumably native IGFBP-2) in assay [6] amounted to 2 fold.

“Des (114-170) K180A K181A hIGFBP-2 (from UniProt P18065 36-113; P18065 207-325)”: in assay [8], the fold lower affinity (reference not named, presumably native IGFBP-2) came out at 2 fold.
